Here are results for two molecules from US20200270627A1 (COMMONWEALTH SCIENTIFIC AND INDUSTRIAL RESEARCH ORGANISATION, published 2020).

The target of this assay is T1, RGA4 1-171:CFP (rice, UniProt F7J0M4 1-171).
T1 construct: not shown: C-terminal CFP tag
T1 sequence (looked up): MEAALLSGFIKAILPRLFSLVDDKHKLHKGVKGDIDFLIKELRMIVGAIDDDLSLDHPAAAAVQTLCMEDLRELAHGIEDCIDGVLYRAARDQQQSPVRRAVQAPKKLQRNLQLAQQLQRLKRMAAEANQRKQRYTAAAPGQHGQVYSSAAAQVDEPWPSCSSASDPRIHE
Kind of assay: co-immunoprecipitation with anti-GFP antibodies from N. benthamiana leaf cells, anti-HA immunoblot.

B1: Sr33 1-160:HA (other)
chain: MDIVTGAIAKLIPKLGELLVGEYKLHKGVKKNIEDLLKELKTMNAALIKIGEVPPDQLDSQDKLWADEVRELSYVIEDAVDKFLVRVHGVEPDDNTNGFKGLMKRTTKLLKKVVDKHGIAHAIKDIKKELQEVAARRDRNKFDGIASIPTEAIDPRLRAL
notes: also called full CC domain of Sr33 fused to a C-terminal HA tag; not shown: C-terminal HA tag (vector pBIN19-35S::GTW:3HA)
On to B1, for which the binding result is reported as “no binding”.

B2: Sr50 1-163:HA (other)
chain: MNIVTGAMGSLIPKLGELLMDEYKLHKRIKKDVEFLKKELESMHAALIKVGEVPRDQLDRQVKLWADEVRELSYNMEDVVDKFLVRVDGDGIQQPHDNSGRFKELKNKMIGLFKKGRNHHRIADAIKEIKEQLQEVAARRDRNKVAVPNPMEPITIDPCLRAL
notes: Transiently expressed in N. benthamiana leaf cells under the 35S promoter; also called full CC domain of Sr50 fused to a C-terminal HA tag; not shown: C-terminal HA tag (vector pBIN19-35S::GTW:3HA)
Turning to B2, the binding result is on record as “no binding”.
